Experimental data as given in US20030143712A1 (J DAVID GLADSTONE INSTITUTES, published 2003).

T1: endogenous HDAC3, O15379
T1 chain: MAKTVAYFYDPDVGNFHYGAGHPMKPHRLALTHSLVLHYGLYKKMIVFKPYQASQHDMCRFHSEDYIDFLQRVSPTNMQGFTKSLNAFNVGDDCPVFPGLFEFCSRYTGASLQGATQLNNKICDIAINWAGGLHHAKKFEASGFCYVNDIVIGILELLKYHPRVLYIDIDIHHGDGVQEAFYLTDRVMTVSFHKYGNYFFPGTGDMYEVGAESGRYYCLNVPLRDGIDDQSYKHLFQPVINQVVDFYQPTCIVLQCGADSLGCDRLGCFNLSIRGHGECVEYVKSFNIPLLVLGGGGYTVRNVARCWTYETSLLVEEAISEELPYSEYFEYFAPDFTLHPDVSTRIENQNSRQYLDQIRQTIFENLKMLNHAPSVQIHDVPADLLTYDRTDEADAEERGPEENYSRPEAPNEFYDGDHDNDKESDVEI

B1: HDAC7-FLAG (full-length human HDAC7 with C-terminal FLAG tag, expressed in cells) (protein)
chain: MDLRVGQRPPVEPPPEPTLLALQRPQRLHHHLFLAGLQQQRSVEPMRLSMDTPMPELQVGPQEQELRQLLHKDKSKRSAVASSVVKQKLAEVILKKQQAALERTVHPNSPGIPYRTLEPLETEGATRSMLSSFLPPVPSLPSDPPEHFPLRKTVSEPNLKLRYKPKKSLERRKNPLLRKESAPPSLRRRPAETLGDSSPSSSSTPASGCSSPNDSEHGPNPILGSEADSDRRTHPTLGPRGPILGSPHTPLFLPHGLEPEAGGTLPSRLQPILLLDPSGSHAPLLTVPGLGPLPFHFAQSLMTTERLSGSGLHWPLSRTRSEPLPPSATAPPPPGPMQPRLEQLKTHVQVIKRSAKPSEKPRLRQIPSAEDLETDGGGPGQVVDDGLEHRELGHGQPEARGPAPLQQHPQVLLWEQQRLAGRLPRGSTGDTVLLPLAQGGHRPLSRAQSSPAAPASLSAPEPASQARVLSSSETPARTLPFTTGLIYDSVMLKHQCSCGDNSRHPEHAGRIQSIWSRLQERGLRSQCECLRGRKASLEELQSVHSERHVLLYGTNPLSRLKLDNGKLAGLLAQRMFVMLPCGGVGVDTDTIWNELHSSNAARWAAGSVTDLAFKVASRELKNGFAVVRPPGHHADHSTAMGFCFFNSVAIACRQLQQQSKASKILIVDWDVHHGNGTQQTFYQDPSVLYISLHRHDDGNFFPGSGAVDEVGAGSGEGFNVNVAWAGGLDPPMGDPEYLAAFRIVVMPIAREFSPDLVLVSAGFDAAEGHPAPLGGYHVSAKCFGYMTQQLMNLAGGAVVLALEGGHDLTAICDASEACVAALLGNRVDPLSEEGWKQKPNLNAIRSLEAVIRVHSKYWGCMQRLASCPDSWVPRVPGADKEEVEAVTALASLSVGILAEDRPSEQLVEEEEPMNL
B2: endogenous HDAC3 (enzyme, UniProt O15379 1-428, looked up)
chain: T1 chain
notes: SupT1 and 293 are human cell lines
B3: GST-HDAC4(aa 612-1084) (enzyme, human, UniProt P56524 612-1084, looked up)
chain: MEAAGIPVSFGGHRPLSRAQSSPASATFPVSVQEPPTKPRFTTGLVYDTLMLKHQCTCGSSSSHPEHAGRIQSIWSRLQETGLRGKCECIRGRKATLEELQTVHSEAHTLLYGTNPLNRQKLDSKKLLGSLASVFVRLPCGGVGVDSDTIWNEVHSAGAARLAVGCVVELVFKVATGELKNGFAVVRPPGHHAEESTPMGFCYFNSVAVAAKLLQQRLSVSKILIVDWDVHHGNGTQQAFYSDPSVLYMSLHRYDDGNFFPGSGAPDEVGTGPGVGFNVNMAFTGGLDPPMGDAEYLAAFRTVVMPIASEFAPDVVLVSSGFDAVEGHPTPLGGYNLSARCFGYLTKQLMGLAGGRIVLALEGGHDLTAICDASEACVSALLGNELDPLPEKVLQQRPNANAVRSMEKVMEIHSKYWRCLQRTTSTAGRSLIEAQTCENEEAETVTAMASLSVGVKPAEKRPDEEPMEEEPPL
notes: range 612-1084; also called recombinant fusion protein corresponding to the catalytically active domain of HDAC4; not shown: glutathione-S-transferase (GST), fusion partner

Columns and labels:
[1] = target: B2; experiment: cell-based or functional assay
[2] = target: T1, endogenous HDAC3, O15379
[3] = target: B3; experiment: repeated incubation of 293 or SupT1 extracts with the GST fusion, western blot of the depleted extract
Description: (§1) Purity, as well as protein amount, was checked on SDS-PAGE gels stained with Coomassie Blue. […] After incubation for 3 hours at 4° C. with rocking, reactions were washed three times in IPLS, three times in the same buffer but at 1 M NaCl, and two times in HD buffer (Fischle et al., supra). Pulldown reactions were split, and either processed for histone deacetylase activity assays or for western blotting. For pulldown reactions with ³⁵S-labeled proteins, cDNAs were transcribed and translated with the TNT reticulocyte system (Promega). The labeling reaction (5 μl) was incubated with GST fusion proteins in a total volume of 200 μl of GST buffer (20 mM Tris-HCl, pH 8.0, 150 mM KCl, 5 mM DTT, 2 mM EDTA, 10% glycerol, 0.5% non fat dry milk, 0.1% NP-40) for 1 h at 4° C. with rocking. Reactions were washed five times in the same buffer, and bound proteins were resolved on denaturing SDS-PAGE gels for analysis by autoradiography.
(§2) First, we examined the possibility that GS\tilde{T}HDAC fusion proteins recruit common factors from cellular extracts.

[4] = target: endogenous HDAC1 (UniProt Q13547 1-482); experiment: as above
Chain of endogenous HDAC1 (Q13547 whole entry): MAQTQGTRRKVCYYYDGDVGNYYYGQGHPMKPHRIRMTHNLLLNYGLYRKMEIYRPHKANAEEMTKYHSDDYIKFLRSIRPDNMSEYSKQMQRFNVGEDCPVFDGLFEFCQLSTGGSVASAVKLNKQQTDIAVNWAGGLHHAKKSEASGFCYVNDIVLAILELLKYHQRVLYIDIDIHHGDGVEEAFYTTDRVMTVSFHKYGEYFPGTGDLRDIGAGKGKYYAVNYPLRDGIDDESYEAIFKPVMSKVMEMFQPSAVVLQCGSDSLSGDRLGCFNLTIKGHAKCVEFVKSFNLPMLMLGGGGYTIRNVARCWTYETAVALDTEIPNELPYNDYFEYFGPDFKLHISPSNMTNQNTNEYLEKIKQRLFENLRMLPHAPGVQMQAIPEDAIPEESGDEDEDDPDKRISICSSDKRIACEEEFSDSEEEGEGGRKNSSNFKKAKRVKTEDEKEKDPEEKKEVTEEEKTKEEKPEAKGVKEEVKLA
Description: as §1, §2

Binder: B1
HDAC activity of HDAC7-FLAG immunoprecipitated from the cytoplasmic fraction of 293 cells [1]: 3240 counts/min | HDAC activity of HDAC7-FLAG immunoprecipitated from the nuclear fraction of 293 cells [1]: 14800 counts/min | HDAC activity, nuclear against cytoplasmic fraction [2]: 4.5 times higher

Binder: B2
binding result [3]: binds

Binder: B3
binding result [4]: no binding | HDAC activity associated with the GST pull-down from GST-HDAC4 depleted lysate against GST depleted lysate (fold reduction) [2]: 3
